Results: paper doi:10.1101/2025.05.20.655083

Biological target: BSB PyV-LTA;mNLSn peptide (Black Sea Bass polyomavirus)
Test: fluorescence polarisation

Substance: mouse importin α2 ΔIBB (from UniProt P52293 70-529) (domain or fragment)
- fold decrease of binding affinity against BSB PyV-LTA;NLS: 10 times
